The target in assay [1] is T1, human Bfl-1 a.a. 1-153 (C4S) with C-terminal avi-6his tag (human).
T1 construct: also called A1/Bfl-1
T1 chain: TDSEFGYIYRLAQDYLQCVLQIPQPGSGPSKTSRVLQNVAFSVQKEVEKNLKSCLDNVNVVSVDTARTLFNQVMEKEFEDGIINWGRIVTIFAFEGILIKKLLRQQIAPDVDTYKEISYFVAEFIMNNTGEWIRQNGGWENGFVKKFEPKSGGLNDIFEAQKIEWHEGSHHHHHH
The assay can be described thus: ratio of the KD of the next tightest BCL2 protein to the KD of the target, BLI.

Assay [2] concerns the target T2, human Bcl-2 a.a. 1-207 with C-terminal avi-6his tag (human, UniProt P10415 2-207). The assay can be described thus: BLI, biotinylated target on streptavidin sensor, range of analyte concentrations. Background: In BLI a coated tip is dipped into the sample, and binding shifts an interference pattern.
The target of assay [3] is T3, human Bcl-w a.a. 1-182 with C-terminal avi-6his tag (human, UniProt Q92843 1-182).
T3 construct: range 1-182; also called BCL2L2
T3 sequence: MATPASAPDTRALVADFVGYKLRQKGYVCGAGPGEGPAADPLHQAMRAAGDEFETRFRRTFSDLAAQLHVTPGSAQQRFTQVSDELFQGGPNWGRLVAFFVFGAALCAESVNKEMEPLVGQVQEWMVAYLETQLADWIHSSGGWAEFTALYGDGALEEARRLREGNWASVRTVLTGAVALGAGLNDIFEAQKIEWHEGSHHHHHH
The description is as above.

The target of assay [4] is T4, human Mcl-1 a.a. 172-327 with C-terminal avi-6his tag (human).
T4 chain: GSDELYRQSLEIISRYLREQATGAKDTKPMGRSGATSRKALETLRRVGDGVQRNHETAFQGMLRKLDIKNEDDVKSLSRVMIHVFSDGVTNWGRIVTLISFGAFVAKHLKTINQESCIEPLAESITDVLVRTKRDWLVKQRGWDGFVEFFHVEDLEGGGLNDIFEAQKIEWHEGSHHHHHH
The assay is described as above.

Assay [5] concerns the target T1, human Bfl-1 a.a. 1-153 (C4S) with …. The description is as above.
Assay [6] concerns the target T5, human Bcl-XL a.a. 1-205 with C-terminal avi-6his tag (human, UniProt Q07817 2-206).
T5 construct: also called BCL2L1
Described as above.
Target sequence in this assay (Q07817 other isoform, or with tags, fused parts or gaps limits assumed): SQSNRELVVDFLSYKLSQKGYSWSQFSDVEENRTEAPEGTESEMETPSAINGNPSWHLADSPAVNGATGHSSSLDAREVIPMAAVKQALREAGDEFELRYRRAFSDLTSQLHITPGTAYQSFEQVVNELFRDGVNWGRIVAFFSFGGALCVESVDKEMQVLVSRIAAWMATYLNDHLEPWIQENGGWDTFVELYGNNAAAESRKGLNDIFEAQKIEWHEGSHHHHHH

The target in assay [7] is T6, human Bcl-B a.a. 11-175 with C-terminal avi-6his tag (human).
T6 construct: also called BCL2L10
T6 chain: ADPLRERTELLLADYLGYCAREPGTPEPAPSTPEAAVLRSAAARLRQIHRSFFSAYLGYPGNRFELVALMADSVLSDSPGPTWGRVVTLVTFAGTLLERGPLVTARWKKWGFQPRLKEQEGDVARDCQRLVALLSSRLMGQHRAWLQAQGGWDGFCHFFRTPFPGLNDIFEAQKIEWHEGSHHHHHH
The description is as above.

Assay [8] addresses T3, human Bcl-w a.a. 1-182 with C-terminal …. The assay can be described thus: initial BLI screening (column 'Binds target?').
Assay [9] concerns the target T2, human Bcl-2 a.a. 1-207 with C-terminal …. The assay can be described thus: BLI at a single analyte concentration (50 nM, 600 s association, then buffer); biotinylated BCL2 protein on a streptavidin sensor.
The target in assay [10] is T3, human Bcl-w a.a. 1-182 with C-terminal …. Described as above.
In assay [11] the target is T4, human Mcl-1 a.a. 172-327 with …. The assay is described as above.
The target in assay [12] is T5, human Bcl-XL a.a. 1-205 with C-terminal …. Described as above.
The target of assay [13] is T7, Epstein-Barr virus BHRF1 a.a. 1-161 with C-terminal avi-6his tag (Epstein-Barr virus).
T7 construct: also called EBV BHRF1; BHRF1-biotin
T7 chain: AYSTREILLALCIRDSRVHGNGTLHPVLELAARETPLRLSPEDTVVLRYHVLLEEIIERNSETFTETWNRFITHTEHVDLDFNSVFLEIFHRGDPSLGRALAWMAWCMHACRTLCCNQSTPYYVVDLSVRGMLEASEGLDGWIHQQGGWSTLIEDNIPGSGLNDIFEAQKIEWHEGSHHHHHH
The assay can be described thus: yeast surface display.

In assay [14] the target is T7, Epstein-Barr virus BHRF1 a.a. 1-161 …. The assay can be described thus: yeast display library, FACS sort at 100 nM BHRF1, deep sequencing.
The target is the same in assay [15]. The assay can be described thus: yeast display library, FACS sort at 400 nM BHRF1, deep sequencing.
The target in assay [16] is T4, human Mcl-1 a.a. 172-327 with …. The assay can be described thus: yeast surface display titration (apparent KD).
In assay [17] the target is T1, human Bfl-1 a.a. 1-153 (C4S) with …. The assay can be described thus: yeast surface display titration (apparent KD).
The target in assay [18] is T2, human Bcl-2 a.a. 1-207 with C-terminal …. The assay can be described thus: yeast surface display titration (apparent KD).
Assay [19] addresses T3, human Bcl-w a.a. 1-182 with C-terminal …. The assay can be described thus: yeast surface display titration (apparent KD).
Assay [20] addresses T5, human Bcl-XL a.a. 1-205 with C-terminal …. The assay can be described thus: yeast surface display titration (apparent KD).
In assay [21] the target is T2, human Bcl-2 a.a. 1-207 with C-terminal …. The assay can be described thus: ratio of the KD of the next tightest BCL2 protein to the KD of the target, BLI.

B1: FINDI (designed binder)
chain: ADPKKVLDKAKDQAENRVRELKQKLEELYKEARKLDLTQEKRKKLEVATLGAVLAAHGDILNAIMQAKEEADKLKKAGLVNSQQLDELKRRLEELKEEALRKASDYGNEFHLKRRY
notes: also called αBFL1
For B1, in [1], the Specificity was 350 fold. Further, the Kd in assay [2] was determined as 321 nM; in [3], 7400 nM; in assay [4] it was 1700 nM; in assay [5], 0.91 nM; in [6] it was 900 nM; in assay [7], 31000 nM.

B2: F-CDP01 (designed binder)
chain: ADPKKVLDKAKDQAENRVRELKQKLEELYKEARKLDLTQEMRKKLQYAAIGAMLAAIGDILNAIMQAKQEADKLKKAGLVNSQQLDELKRRLEELKEEALRKAHDYGSEFYLKLEY
In the case of B2, the Specificity in assay [1] is 1.8 fold. The Kd amounted to 20 nM in assay [2]; 590 nM in [3]; 4.6 nM in assay [4]; 9 nM in assay [6]; 210000 nM in assay [7]. Besides, in [5], the “apparent Kd (pooled screen)” value is 2.6 nM.

B3: W-CDP02 (designed binder)
chain: DPKKVLDKARDQALKRLEEMRKKLEESYKEARKKDLTQEERRKLEEKYAEAMKRAAEDIYNMIQQALKEAEKEKKAGQVNSQQLDKLREDLNNKLIAAALAAIGDAFNMAANLRT
B3: the binding result in assay [8] is listed as “binds”.

B4: W-CDP01 (designed binder)
chain: DPKKVFDKAKDKAENQVRYLKQRLEELYKEARKKDLTQEQRRKLKEKYLAAKLAAILAAIGDAFNALAEARELHKQGKVNKQQLDELAKRLDRLAEEAIQKAEDYAREFAYKLEY
Turning to B4, the binding result in assay [8] was “binds”.

B5: M-CDP02 (designed binder)
chain: ADPKKVLDKAKDQAENRVRELKQELEELYKEARKLDLTQEERRKLEESYIAAMLRAIGDIFNAIMQAKNEADKLKKAGLVNSQQLDELRRRLEELRKEASLKAEDYGREFQEKLEY
With B5, the binding result in assay [9], in assay [10], in assay [11] and in assay [12] was “binds” each time.

B6: F-ECM04 (designed binder)
chain: ADPKKVLDKAKDQAENRVRELKQKLEELYKEARKLDLTQEMRKKLEVAALGAVLAAHGDILNAIMQAKEEADKLKKAGLVNSQQLDELKRRLEELKEEALRKASDYGKEFHLKRRYG
As to B6, the Specificity in [1] amounted to 91 fold. The Kd in assay [2] was found to be 100 nM; in assay [3], 3800 nM; in assay [4] it was 255 nM; in assay [5], 1.1 nM; in assay [6] it was 540 nM; in assay [7], 4000 nM.

B7: Index 67 (designed binder)
chain: GNRSEEVKELMRELAERVLLKFRWRADEMNKEKDKKYDKEELKRELTEKWIAFALDAIGDLFNAAELAKKLADLFKKGTGFLEERLERRKEEIEKLEEKGSRKVSYEGRREAEKIESG
Take B7: in [13], the binding result is on record as “no binding”. Moreover, the Log2 enrichment ratio in [14] was -3.48 log2; in assay [15], -3.44 log2.

B8: Index 47 (designed binder)
chain: GWSADWIKDQAKELMLRAAEEMKKRADEEEKKFKYKQFTTEFLTKATMRWIALALMAIGDVFNVLMWALEWAKRMAKLNQYRKEELEKAKEEAKKLAEKAARRITEIGREAEQKALKG
B8: the binding result in [13] is given as “no binding”. Further, the Log2 enrichment ratio in assay [14] is -3.13 log2; in assay [15], -2.79 log2.

B9: BbpD04.3 (designed binder)
chain: ADWKKVLDKAKDIAENRVRELKQKLEEFYKEAMKLDLTQEMRRKLMLRWIAAMLMAIGDIFNAIRQAKQEADKLKKAGLVNSQQLDELKRRLEELKEEASRKARDYGREFQLKLEY
Take B9: the Kd in assay [16] was 19 nM; in [17], 32 nM.

B10: BbpD04.1 (designed binder)
chain: ADWKKVLDKAKDIAENRVREIKQKLEEFYKEAMKLDLTQEMRRKLMLRWIAAMLMAIGDIFNAIRQAKQEADKLKKAGQVNSQLLDELKRRLEELKEEASRKCHDYGREFQLKLEY
On to B10, for which the Kd in assay [18] was 110 nM; in assay [19] it was 14 nM; in assay [16] it was 30 nM; in assay [20] it was 25 nM.

B11: 2-INDI (designed binder)
chain: ADPKKVLDKAKDEAENRVRELKQRLEELYKEARKLDLTQEMRQELVDKARAASLQANGDIFYAILRALAEAEKLKKAGLVNSQQLDELKRRLEELAEEARRKAEKLRDEFRLKLEY
notes: also called αBCL2
Take B11: the Specificity in assay [21] came to 2210 fold. Besides, the Kd in [2] amounted to 0.839 nM; in [3], 1850 nM; in assay [6], 3500 nM.

B12: 2-CDP06 (designed binder)
chain: ADPKKVLDKAKDEAENRVRELKQKLEELYKEARKLDLTQEMRQELVDKARAASLQASGDIFYAILRALAEAEKLKKAGLVNSQQLDELKRRLEELAEEARRKAEKLGDEFRLKLEY
Consider B12, for which the Specificity in [21] is 190 fold. For the same molecule, the “apparent Kd (pooled screen)” value in [2] stood at 8.9 nM. Moreover, the results for the Kd in assay [3] and in assay [6] were 1670 nM and 12000 nM, respectively.

B13: Index 15 (designed binder)
chain: GNDRDQIEEYHRERMDEELDRAKKRLEELKKLWEKLDGDDLMKFFWTFKWIAESLKIIGDLFNRLLRTWEFAEALKKGIGFDEKKAEEAKERAYERAAEAAWKAAKLSREMREFLLKG
With B13, the binding result in assay [13] is given as “no binding”. Further, the results for the Log2 enrichment ratio in assay [14] and in assay [15] were -2.77 log2 and -0.71 log2, respectively.

The values above are taken from US20160376333A1 (University of Washington, published 2016).
